This experiment addresses endogenous UBR4 tagged with FLAG at the UBR4 locus (human (endogenous in HEK293T)) (UniProt Q5T4S7). Kind of experiment: cryo-EM structure.

Sequence of endogenous UBR4 tagged with FLAG at the UBR4 locus (Q5T4S7 whole entry): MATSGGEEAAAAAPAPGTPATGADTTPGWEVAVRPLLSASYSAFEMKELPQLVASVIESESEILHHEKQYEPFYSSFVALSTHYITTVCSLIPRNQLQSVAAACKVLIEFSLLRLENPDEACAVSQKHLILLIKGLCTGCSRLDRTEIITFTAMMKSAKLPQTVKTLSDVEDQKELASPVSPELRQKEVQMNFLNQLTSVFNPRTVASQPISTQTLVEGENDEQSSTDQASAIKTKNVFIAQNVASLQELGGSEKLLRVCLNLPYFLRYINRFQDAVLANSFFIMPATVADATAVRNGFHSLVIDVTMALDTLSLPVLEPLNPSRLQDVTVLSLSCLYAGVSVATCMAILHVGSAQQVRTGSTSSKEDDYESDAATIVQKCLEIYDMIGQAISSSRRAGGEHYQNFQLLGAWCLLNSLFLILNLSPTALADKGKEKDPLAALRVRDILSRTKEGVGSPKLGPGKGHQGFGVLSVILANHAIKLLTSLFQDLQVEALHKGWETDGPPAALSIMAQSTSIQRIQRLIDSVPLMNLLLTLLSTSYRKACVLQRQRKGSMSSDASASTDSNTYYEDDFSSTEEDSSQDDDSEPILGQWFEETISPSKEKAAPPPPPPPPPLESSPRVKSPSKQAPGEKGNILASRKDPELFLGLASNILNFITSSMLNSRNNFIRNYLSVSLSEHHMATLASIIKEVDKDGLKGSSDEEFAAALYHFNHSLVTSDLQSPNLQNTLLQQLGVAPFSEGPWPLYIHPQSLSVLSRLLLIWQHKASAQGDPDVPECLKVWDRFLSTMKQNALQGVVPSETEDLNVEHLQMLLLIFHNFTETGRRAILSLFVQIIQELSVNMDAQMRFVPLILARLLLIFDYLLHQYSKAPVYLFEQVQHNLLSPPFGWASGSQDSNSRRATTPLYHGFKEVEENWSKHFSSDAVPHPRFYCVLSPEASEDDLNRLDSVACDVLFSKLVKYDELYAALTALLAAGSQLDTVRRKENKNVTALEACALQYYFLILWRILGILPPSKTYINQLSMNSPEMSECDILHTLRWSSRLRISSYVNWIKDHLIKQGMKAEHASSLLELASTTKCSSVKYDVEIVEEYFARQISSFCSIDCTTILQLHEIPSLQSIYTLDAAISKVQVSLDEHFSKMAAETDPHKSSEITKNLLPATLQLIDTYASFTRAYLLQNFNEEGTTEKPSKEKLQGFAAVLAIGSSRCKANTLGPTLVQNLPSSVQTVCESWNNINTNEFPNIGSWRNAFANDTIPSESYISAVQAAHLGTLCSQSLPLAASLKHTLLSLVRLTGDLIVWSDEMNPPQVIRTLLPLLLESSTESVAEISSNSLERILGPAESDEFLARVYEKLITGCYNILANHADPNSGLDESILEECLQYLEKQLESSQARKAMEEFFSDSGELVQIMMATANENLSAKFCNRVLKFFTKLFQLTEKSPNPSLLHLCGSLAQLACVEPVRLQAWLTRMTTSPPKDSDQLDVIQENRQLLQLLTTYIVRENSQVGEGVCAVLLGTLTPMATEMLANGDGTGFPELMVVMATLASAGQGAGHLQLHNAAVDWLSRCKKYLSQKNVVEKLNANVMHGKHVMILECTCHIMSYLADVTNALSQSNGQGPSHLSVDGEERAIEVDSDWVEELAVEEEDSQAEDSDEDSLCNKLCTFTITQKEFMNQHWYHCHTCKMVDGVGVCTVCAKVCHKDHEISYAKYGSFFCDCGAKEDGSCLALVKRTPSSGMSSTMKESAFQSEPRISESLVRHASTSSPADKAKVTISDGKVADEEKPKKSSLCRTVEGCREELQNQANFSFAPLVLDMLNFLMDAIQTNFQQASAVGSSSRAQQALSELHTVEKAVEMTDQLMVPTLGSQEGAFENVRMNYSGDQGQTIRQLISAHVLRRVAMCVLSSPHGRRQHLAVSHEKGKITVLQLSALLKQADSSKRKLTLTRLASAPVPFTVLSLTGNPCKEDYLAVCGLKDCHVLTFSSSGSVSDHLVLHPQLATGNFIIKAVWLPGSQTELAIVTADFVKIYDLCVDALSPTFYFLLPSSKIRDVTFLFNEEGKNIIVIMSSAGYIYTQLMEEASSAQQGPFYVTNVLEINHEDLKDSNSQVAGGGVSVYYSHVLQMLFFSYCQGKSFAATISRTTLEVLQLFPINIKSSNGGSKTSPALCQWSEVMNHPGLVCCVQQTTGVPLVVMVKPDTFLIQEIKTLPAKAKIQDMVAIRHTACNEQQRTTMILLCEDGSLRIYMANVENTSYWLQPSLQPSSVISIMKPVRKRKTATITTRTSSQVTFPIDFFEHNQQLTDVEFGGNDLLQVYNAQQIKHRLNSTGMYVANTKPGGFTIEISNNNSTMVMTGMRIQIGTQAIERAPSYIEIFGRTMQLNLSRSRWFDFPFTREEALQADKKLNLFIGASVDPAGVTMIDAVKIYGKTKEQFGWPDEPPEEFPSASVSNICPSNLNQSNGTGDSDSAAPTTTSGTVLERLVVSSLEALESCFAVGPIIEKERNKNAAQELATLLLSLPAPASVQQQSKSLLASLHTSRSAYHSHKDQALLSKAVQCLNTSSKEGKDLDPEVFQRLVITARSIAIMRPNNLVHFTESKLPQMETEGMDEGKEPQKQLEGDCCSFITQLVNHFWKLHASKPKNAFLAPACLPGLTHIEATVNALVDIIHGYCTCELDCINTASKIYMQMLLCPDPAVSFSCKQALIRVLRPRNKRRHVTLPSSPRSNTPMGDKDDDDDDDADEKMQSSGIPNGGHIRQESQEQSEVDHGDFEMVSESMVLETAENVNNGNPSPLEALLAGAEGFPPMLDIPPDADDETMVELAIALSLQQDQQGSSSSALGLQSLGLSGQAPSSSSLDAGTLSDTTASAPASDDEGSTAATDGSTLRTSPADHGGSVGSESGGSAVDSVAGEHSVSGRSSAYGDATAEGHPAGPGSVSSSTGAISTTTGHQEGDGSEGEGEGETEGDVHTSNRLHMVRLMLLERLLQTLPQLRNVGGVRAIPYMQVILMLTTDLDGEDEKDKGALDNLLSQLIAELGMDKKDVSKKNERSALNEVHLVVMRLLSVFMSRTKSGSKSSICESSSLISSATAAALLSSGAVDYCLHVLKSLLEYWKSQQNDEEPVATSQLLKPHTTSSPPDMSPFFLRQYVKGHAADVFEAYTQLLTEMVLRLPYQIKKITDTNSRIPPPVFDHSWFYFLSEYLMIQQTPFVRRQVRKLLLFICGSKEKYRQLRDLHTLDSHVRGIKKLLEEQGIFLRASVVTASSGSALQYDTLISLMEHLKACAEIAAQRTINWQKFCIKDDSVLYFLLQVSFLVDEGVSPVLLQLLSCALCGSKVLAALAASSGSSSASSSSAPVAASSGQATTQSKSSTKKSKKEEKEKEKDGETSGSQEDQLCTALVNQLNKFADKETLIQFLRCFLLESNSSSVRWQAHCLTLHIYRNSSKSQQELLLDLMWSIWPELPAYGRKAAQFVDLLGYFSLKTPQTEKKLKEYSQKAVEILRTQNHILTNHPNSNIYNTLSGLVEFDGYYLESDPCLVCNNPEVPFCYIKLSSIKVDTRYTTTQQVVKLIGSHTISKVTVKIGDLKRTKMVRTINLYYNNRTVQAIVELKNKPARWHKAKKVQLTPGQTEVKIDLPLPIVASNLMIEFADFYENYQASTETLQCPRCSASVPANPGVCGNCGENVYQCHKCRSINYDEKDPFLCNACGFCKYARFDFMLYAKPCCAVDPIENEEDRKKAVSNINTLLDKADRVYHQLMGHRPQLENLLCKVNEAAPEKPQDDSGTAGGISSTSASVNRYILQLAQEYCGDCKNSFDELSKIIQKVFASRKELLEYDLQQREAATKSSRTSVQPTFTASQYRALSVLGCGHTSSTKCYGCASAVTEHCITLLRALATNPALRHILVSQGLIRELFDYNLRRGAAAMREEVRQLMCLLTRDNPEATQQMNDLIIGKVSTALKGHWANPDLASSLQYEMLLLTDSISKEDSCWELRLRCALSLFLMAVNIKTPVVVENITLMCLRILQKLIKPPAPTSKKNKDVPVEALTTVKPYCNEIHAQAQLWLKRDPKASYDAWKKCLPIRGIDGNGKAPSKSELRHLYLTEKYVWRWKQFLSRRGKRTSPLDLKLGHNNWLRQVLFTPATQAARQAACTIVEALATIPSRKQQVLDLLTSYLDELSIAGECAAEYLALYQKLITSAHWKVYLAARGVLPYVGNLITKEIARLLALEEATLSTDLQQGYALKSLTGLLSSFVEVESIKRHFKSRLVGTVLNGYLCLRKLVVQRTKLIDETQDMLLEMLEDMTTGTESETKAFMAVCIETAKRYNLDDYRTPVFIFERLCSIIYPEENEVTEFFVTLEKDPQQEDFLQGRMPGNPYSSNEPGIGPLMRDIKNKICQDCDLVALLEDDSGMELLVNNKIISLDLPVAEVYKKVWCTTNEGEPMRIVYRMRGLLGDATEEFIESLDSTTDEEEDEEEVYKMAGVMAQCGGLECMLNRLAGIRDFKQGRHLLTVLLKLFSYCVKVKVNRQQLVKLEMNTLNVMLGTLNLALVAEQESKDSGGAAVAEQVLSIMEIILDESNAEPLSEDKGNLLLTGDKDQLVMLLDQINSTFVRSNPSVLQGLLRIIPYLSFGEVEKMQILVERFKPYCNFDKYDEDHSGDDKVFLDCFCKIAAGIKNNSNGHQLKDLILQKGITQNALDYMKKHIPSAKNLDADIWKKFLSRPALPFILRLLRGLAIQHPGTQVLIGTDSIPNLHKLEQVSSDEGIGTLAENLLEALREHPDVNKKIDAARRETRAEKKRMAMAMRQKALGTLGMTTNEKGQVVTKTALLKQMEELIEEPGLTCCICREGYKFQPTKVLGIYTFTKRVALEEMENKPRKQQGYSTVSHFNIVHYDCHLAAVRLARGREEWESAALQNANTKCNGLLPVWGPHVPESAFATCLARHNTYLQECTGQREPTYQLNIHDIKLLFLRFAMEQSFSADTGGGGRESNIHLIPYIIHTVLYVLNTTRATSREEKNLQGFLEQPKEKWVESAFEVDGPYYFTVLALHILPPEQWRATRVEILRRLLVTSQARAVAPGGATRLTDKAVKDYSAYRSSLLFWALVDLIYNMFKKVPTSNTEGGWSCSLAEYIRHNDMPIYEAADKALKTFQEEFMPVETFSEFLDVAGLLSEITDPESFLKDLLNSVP

The stoichiometry N is a count of units in the complex or per binding partner. Turning to “endogenous UBR4 tagged with FLAG at the UBR4 locus (from UniProt Q5T4S7-1 1-5183) (natural protein)”, the stoichiometry N turned out to be 2.

These data come from publication doi:10.1101/2024.12.02.626349.
